In patent US20170015742A1 (published 2017):
Where a chain is given by its changes, count along the chain named.

B1: CODV005 (bispecific antibody, human IgG1, kappa, L234A L235A)
heavy: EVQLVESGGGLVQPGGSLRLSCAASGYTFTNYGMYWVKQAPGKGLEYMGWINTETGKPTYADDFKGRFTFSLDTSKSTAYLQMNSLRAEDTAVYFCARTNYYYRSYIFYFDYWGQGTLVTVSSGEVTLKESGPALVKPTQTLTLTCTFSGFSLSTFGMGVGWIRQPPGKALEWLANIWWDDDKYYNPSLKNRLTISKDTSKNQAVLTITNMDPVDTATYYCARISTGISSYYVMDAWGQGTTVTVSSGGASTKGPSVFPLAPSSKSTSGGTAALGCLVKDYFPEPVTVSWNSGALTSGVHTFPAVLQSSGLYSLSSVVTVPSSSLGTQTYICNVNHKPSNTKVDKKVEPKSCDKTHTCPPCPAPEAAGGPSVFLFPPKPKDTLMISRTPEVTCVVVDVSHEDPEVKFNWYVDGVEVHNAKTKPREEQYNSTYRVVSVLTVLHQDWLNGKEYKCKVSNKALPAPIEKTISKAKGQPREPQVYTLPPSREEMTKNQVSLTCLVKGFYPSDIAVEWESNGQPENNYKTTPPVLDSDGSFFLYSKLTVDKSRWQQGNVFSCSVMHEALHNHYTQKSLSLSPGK
light: DFQLTQSPSSLSASVGDRVTITCERSSGDIGDTYVSWYQQKPGKAPKNVIYGNDQRPSGVPSRFSGSGSGNSATLTISSLQPEDFATYFCQSYDSDIDIVFGQGTKVEIKGGGSGGGDTQLTQSPSSLSASVGDRVTISCRASESVSTHMHWYQQKPGKAPKLLIYGASNLESGVPSRFSGSGSGTDFTLTISSLQPEDFATYFCQQSWNDPFTFGQGTKVEIKGGGSGRTVAAPSVFIFPPSDEQLKSGTASVVCLLNNFYPREAKVQWKVDNALQSGNSQESVTEQDSKDSTYSLSSTLTLSKADYEKHKVYACEVTHQGLSSPVTKSFNRGEC
notes: Anti-human VEGF-A/anti-human PDGF-BB cross-over DVD-Ig (CO-DVD-Ig); also called PR-1565083
B2: CODV007 (bispecific antibody, human IgG1, kappa, L234A L235A)
heavy: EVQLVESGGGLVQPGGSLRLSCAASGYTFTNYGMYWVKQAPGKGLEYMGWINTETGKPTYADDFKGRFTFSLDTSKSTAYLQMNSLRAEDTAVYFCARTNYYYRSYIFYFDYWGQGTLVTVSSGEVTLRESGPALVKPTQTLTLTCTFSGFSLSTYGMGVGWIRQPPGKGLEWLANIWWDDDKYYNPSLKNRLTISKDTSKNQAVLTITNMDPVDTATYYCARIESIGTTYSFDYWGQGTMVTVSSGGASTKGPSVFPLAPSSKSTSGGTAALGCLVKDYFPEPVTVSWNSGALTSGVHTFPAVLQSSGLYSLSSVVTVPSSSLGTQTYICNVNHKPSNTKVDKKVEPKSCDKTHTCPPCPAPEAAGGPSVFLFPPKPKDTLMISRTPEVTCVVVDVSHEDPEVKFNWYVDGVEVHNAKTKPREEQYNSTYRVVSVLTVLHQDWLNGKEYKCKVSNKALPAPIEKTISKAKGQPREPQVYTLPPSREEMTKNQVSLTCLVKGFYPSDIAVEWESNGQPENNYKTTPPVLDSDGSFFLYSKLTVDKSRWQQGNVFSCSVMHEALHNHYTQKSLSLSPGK
light: B1 light with T33S, G52A, N53D, T74S, S95I, D96N
notes: Anti-human VEGF-A/anti-human PDGF-BB cross-over DVD-Ig (CO-DVD-Ig); also called PR-1565085
B3: CODV006 (bispecific antibody, human IgG1, kappa, L234A L235A)
heavy: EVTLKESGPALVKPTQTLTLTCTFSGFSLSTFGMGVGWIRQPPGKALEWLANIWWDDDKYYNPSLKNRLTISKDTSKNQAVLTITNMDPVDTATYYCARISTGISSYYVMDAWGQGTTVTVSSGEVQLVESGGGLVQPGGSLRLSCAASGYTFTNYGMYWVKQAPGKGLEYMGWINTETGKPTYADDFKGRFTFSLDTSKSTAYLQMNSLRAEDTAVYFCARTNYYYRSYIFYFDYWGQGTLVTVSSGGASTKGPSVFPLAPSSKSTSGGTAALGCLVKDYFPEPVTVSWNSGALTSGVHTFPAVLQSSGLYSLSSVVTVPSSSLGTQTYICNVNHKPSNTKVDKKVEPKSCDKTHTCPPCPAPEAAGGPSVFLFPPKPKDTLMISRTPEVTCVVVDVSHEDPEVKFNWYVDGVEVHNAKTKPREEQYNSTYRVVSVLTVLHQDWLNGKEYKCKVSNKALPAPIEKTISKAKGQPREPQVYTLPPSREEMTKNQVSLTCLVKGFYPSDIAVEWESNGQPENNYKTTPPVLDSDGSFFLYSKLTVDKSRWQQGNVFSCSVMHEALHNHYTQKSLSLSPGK
light: DTQLTQSPSSLSASVGDRVTISCRASESVSTHMHWYQQKPGKAPKLLIYGASNLESGVPSRFSGSGSGTDFTLTISSLQPEDFATYFCQQSWNDPFTFGQGTKVEIKGGGSGGGDFQLTQSPSSLSASVGDRVTITCERSSGDIGDTYVSWYQQKPGKAPKNVIYGNDQRPSGVPSRFSGSGSGNSATLTISSLQPEDFATYFCQSYDSDIDIVFGQGTKVEIKGGGSGRTVAAPSVFIFPPSDEQLKSGTASVVCLLNNFYPREAKVQWKVDNALQSGNSQESVTEQDSKDSTYSLSSTLTLSKADYEKHKVYACEVTHQGLSSPVTKSFNRGEC
notes: Anti-human VEGF-A/anti-human PDGF-BB cross-over DVD-Ig (CO-DVD-Ig); also called PR-1565084
B4: CODV004 (bispecific antibody, human IgG1, kappa, L234A L235A)
heavy: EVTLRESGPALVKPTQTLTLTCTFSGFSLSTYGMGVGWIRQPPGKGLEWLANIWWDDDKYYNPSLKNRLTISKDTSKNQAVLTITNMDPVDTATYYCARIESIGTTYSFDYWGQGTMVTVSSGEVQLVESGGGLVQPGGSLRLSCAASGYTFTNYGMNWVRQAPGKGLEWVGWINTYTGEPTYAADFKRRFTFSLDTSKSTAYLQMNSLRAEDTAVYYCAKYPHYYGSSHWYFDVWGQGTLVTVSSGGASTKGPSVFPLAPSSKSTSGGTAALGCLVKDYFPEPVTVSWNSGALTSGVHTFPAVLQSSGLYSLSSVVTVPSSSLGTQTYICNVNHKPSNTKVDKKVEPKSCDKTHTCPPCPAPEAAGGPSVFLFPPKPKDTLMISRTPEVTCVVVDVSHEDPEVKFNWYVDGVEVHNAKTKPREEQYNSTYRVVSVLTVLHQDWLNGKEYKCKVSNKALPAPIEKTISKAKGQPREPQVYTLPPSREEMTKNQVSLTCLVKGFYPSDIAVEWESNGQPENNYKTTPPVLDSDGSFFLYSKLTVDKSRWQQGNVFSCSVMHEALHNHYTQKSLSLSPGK
light: DIQMTQSPSSLSASVGDRVTITCSASQDISNYLNWYQQKPGKAPKVLIYFTSSLHSGVPSRFSGSGSGTDFTLTISSLQPEDFATYYCQQYSTVPWTFGQGTKVEIKGGGSGGGDFQLTQSPSSLSASVGDRVTITCERSSGDIGDSYVSWYQQKPGKAPKNVIYADDQRPSGVPSRFSGSGSGNSASLTISSLQPEDFATYFCQSYDINIDIVFGQGTKVEIKGGGSGRTVAAPSVFIFPPSDEQLKSGTASVVCLLNNFYPREAKVQWKVDNALQSGNSQESVTEQDSKDSTYSLSSTLTLSKADYEKHKVYACEVTHQGLSSPVTKSFNRGEC
notes: Anti-human VEGF-A/anti-human PDGF-BB cross-over DVD-Ig (CO-DVD-Ig); also called PR-1565051
B5: CODV003 (bispecific antibody, human IgG1, kappa, L234A L235A)
heavy: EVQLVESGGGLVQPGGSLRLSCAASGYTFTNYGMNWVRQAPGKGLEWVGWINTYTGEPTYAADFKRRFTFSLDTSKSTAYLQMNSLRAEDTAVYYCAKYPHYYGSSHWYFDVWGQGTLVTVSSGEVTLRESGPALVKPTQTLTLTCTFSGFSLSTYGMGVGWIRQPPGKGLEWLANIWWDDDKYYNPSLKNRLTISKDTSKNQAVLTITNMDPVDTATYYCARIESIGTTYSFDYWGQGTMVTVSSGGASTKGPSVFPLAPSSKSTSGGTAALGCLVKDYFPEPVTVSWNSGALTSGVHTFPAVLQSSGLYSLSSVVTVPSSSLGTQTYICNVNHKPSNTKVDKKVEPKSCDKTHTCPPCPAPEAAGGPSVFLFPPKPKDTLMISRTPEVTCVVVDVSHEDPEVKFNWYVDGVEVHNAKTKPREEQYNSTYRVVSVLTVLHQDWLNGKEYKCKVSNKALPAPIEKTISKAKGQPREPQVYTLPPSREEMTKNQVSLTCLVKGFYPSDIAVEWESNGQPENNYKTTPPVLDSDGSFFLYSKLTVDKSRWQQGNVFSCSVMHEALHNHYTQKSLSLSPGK
light: DFQLTQSPSSLSASVGDRVTITCERSSGDIGDSYVSWYQQKPGKAPKNVIYADDQRPSGVPSRFSGSGSGNSASLTISSLQPEDFATYFCQSYDINIDIVFGQGTKVEIKGGGSGGGDIQMTQSPSSLSASVGDRVTITCSASQDISNYLNWYQQKPGKAPKVLIYFTSSLHSGVPSRFSGSGSGTDFTLTISSLQPEDFATYYCQQYSTVPWTFGQGTKVEIKGGGSGRTVAAPSVFIFPPSDEQLKSGTASVVCLLNNFYPREAKVQWKVDNALQSGNSQESVTEQDSKDSTYSLSSTLTLSKADYEKHKVYACEVTHQGLSSPVTKSFNRGEC
notes: Anti-human VEGF-A/anti-human PDGF-BB cross-over DVD-Ig (CO-DVD-Ig); also called PR-1565044

What follows are binders tested against T1, Human PDGF-BB (human, UniProt P01127 82-190) (assay: SPR (Biacore), method of Example 1.1).
T1 construct: also called hPDGF-BB
T1 sequence (P01127 82-190 limits assumed): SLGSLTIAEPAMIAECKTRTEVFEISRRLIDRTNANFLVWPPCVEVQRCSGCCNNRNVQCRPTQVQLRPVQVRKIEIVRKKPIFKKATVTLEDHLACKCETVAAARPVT
Procedure: (§1) Unreacted moieties on the biosensor surface were blocked with ethanolamine. For kinetic analysis, rate equations derived from the 1:1 Langmuir binding model were fitted simultaneously to multiple antigen injections (using global fit analysis) with the use of Scrubber 2 (BioLogic Software), Biacore Biaevaluation 4.0.1 software or Biacore T100 Evaluation software. Purified antibodies or DVD-Ig molecules were diluted in running buffer for capture across goat anti-human Fc reaction surfaces. Antibodies or DVD-Ig molecules to be captured as a ligand (1 μg/ml) were injected over reaction matrices at a flow rate of 10 μl/minute. During the assay, all measurements were referenced against the capture surface alone (i.e., with no captured antibody or DVD-Ig molecule). […] The equilibrium dissociation constant KD (M) of the reaction between antibodies and the target antigen was then calculated from the kinetic rate constants by the following formula: KD=Koff/Kₒₙ. Binding was recorded as a function of time and kinetic rate constants were calculated. In this assay, on-rates as fast as 10⁶M⁻¹s⁻¹ and off-rates as slow as 10⁻⁶ s⁻¹ could be measured.

| Binder | Kd | kon |
| --- | --- | --- |
| B1 | 0.011 nM | 1.2e+07 M⁻¹ s⁻¹ |
| B2 | 0.0073 nM | 2.9e+07 M⁻¹ s⁻¹ |
| B3 | 0.0097 nM | 2.2e+07 M⁻¹ s⁻¹ |
| B4 | 0.087 nM | 1e+07 M⁻¹ s⁻¹ |
| B5 | 0.011 nM | 2.3e+07 M⁻¹ s⁻¹ |

The binders below were run against T2, Human VEGF-A 165 (human, UniProt P15692 207-395) (assay: SPR (Biacore), method of Example 1.1).
T2 construct: also called hVEGF165
T2 sequence (P15692 other isoform, or with tags, fused parts or gaps limits assumed): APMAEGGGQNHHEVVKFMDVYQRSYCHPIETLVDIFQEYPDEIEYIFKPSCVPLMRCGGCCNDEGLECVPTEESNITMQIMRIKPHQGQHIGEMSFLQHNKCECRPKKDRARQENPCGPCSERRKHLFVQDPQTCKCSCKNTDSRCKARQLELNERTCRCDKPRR
Procedure: as §1

| Binder | Kd | binding result |
| --- | --- | --- |
| B1 | 35 nM | – |
| B2 | 22 nM | – |
| B3 | – | no binding |
| B4 | – | no binding |
| B5 | – | no binding |
